Measurements: the supplement of paper PMC10126150
± gives the standard deviation of the averaged measurements.
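Further: ATP exposure 15 min at 22 °C before imaging.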

The sequences below were run on ATP (assay: switch fluorescence ratio, 500 uM ATP over buffer (Cy3 cluster intensity, sum of 5 cycles each) (fold (ratio)); higher = stronger signal-on switching upon ATP binding; sequences stand for … in TCGTCGGCAGCGTCAGATGTGTATAAGAGACAGTTTTTTTTTTTTTTTTTTTTTTTTT…TC). Settings: aptamer strand: ATP DNA aptamer (quencher-CACCTGGGGGAGTATTGCGGAGGAAGG + anchor), 100 nM annealed; ATP concentration: 500 uM.
Summary of the method: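 Per cluster, summed Cy3 intensity from the target cycles was divided by that from the buffer cycles to give the fluorescence ratio, then averaged per switch-domain sequence. Clusters outside 100-1000 RFU were excluded. The Cy3-labelled switching-strand clusters, on a modified Illumina MiSeq flow-cell, were annealed to 100 nM quencher-labelled ATP aptamer and imaged in selection buffer, then after 15 min with 500 uM ATP at 22 °C, for five cycles with NaOH stripping and re-annealing between them.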
TGGGCAGGCT gave a switch fluorescence ratio of 0.998 ± 0.044. With CTGAGGCGCC the switch fluorescence ratio was 1.01 ± 0.056. In the case of ATTCGTATTT, the switch fluorescence ratio is reported as 0.987 ± 0.029. AATTTCCGAG was tested, and the switch fluorescence ratio was 1.17 ± 0.037. Work on CTTAATTATA yielded a switch fluorescence ratio of 1.01 ± 0.015. GTAGAAACGC was tested, and the switch fluorescence ratio was 0.998 ± 0.01. In the case of TAGATGTCAG, the switch fluorescence ratio is reported as 0.986 ± 0.016. For AAATTCGCGT, the switch fluorescence ratio was 1.01 ± 0.015. For CGGAACGCA, the switch fluorescence ratio was 2.01 ± 0.046. Work on TGCAGTATGG yielded a switch fluorescence ratio of 0.997 ± 0.019. With AGGGAGAGCC the switch fluorescence ratio was 0.9957 ± 0.0041. TAGGCGTGCG gave a switch fluorescence ratio of 0.976 ± 0.052. For CATGAGTAAG, the switch fluorescence ratio was 1 ± 0.015. Work on CTCAGAAACA yielded a switch fluorescence ratio of 1.02 ± 0.013. Work on TTAGAAGGGG yielded a switch fluorescence ratio of 0.993 ± 0.015. GGTTCAGGGC showed a switch fluorescence ratio of 1.02 ± 0.047. For GGCTTGAACT, the switch fluorescence ratio was 1.05 ± 0.083. TCGATTCAGT gave a switch fluorescence ratio of 0.9804 ± 0.0054. For TTGTTGGGCA, the switch fluorescence ratio was 1.01 ± 0.032. Sequence GGGCCAAGTA has a switch fluorescence ratio of 0.983 ± 0.033. ACTTAGTCA was tested, and the switch fluorescence ratio was 1.02 ± 0.021. With TTTATTTTTC the switch fluorescence ratio was 1.04 ± 0.046. In the case of GATGCCGGGA, the switch fluorescence ratio is reported as 1.02 ± 0.038. CAAGTGCTGT showed a switch fluorescence ratio of 0.98 ± 0.033. With GGGGATATAT the switch fluorescence ratio was 1 ± 0.035. For GAGGCAGGGT, the switch fluorescence ratio was 1.033 ± 0.0064. Sequence TATATCGGCT has a switch fluorescence ratio of 1.03 ± 0.023. In the case of TTTAATGGTT, the switch fluorescence ratio is reported as 1.02 ± 0.039. With TGTGATTTAA the switch fluorescence ratio was 1.002 ± 0.0028. Work on TCTGGGAGAA yielded a switch fluorescence ratio of 0.992 ± 0.042. In the case of TTTTGTTTGA, the switch fluorescence ratio is reported as 0.995 ± 0.01. With TCCTAGTTGT the switch fluorescence ratio was 0.9798 ± 0.0013. CGCGGGTATT was tested, and the switch fluorescence ratio was 1.02 ± 0.017. For GAGAAGATTT, the switch fluorescence ratio was 1.036 ± 0.0016. Work on GTGAGTAATT yielded a switch fluorescence ratio of 1.02 ± 0.078. For TTAGGTGAGT, the switch fluorescence ratio was 1.21 ± 0.3. GGGTGTTTTT showed a switch fluorescence ratio of 0.98 ± 0.0073. For CAGGGGGTTT, the switch fluorescence ratio was 1.01 ± 0.044. In the case of TCTGTAAATT, the switch fluorescence ratio is reported as 0.991 ± 0.03. TGGGGAACCT was tested, and the switch fluorescence ratio was 0.96 ± 0.032. With TGGATCTCAG the switch fluorescence ratio was 0.982 ± 0.012. In the case of AATTCGTTAC, the switch fluorescence ratio is reported as 1.63 ± 0.76. ACCGTTGGTT gave a switch fluorescence ratio of 1.02 ± 0.056. Sequence CAGCCGACCG has a switch fluorescence ratio of 1.163 ± 0.0088. CTGGGTCCGG gave a switch fluorescence ratio of 1.01 ± 0.024. For TTAAGGGAAA, the switch fluorescence ratio was 1.02 ± 0.02. Work on GTGGGATATT yielded a switch fluorescence ratio of 0.9809 ± 0.0056. Work on GCGTTCACGG yielded a switch fluorescence ratio of 0.988 ± 0.026. AATGGGCTGA gave a switch fluorescence ratio of 0.971 ± 0.015. Work on CTCGGGGGGA yielded a switch fluorescence ratio of 1.01 ± 0.018. Sequence CGTAGGGGGG has a switch fluorescence ratio of 0.986 ± 0.03. GGTATGACTT gave a switch fluorescence ratio of 1.03 ± 0.07. In the case of CTACAGGGGG, the switch fluorescence ratio is reported as 1.08 ± 0.018. With CATGGAGGTC the switch fluorescence ratio was 1.03 ± 0.026. In the case of TATTTTTTCG, the switch fluorescence ratio is reported as 0.987 ± 0.027. In the case of GAACCTTGAC, the switch fluorescence ratio is reported as 1.61 ± 0.14. Sequence TTTATTGTCC has a switch fluorescence ratio of 0.975 ± 0.034. Work on TGGCCCGGGA yielded a switch fluorescence ratio of 0.9878 ± 0.0035. In the case of GTAGGGGGAC, the switch fluorescence ratio is reported as 1.05 ± 0.099. Sequence AGGGTTGGGC has a switch fluorescence ratio of 1.01 ± 0.021. GGGTGTATCG was tested, and the switch fluorescence ratio was 0.9943 ± 0.0036. GAGGCGGATT showed a switch fluorescence ratio of 1.01 ± 0.026. With CGCTCAAGGG the switch fluorescence ratio was 1.031 ± 0.0042. AAAGAGTATA gave a switch fluorescence ratio of 0.9972 ± 0.0036. AGTTTAACTA showed a switch fluorescence ratio of 1 ± 0.025. Work on GGGTCAGGTT yielded a switch fluorescence ratio of 1.01 ± 0.029. CTGTCGAGTA was tested, and the switch fluorescence ratio was 1.13 ± 0.19. With GAGGCGGACT the switch fluorescence ratio was 1.02 ± 0.015. AGTTTGGGGC showed a switch fluorescence ratio of 0.984 ± 0.045. With ATTTAAGAAG the switch fluorescence ratio was 0.99 ± 0.032. AGGCTTTTAT showed a switch fluorescence ratio of 1.005 ± 0.0078. Sequence CGGGGGAGAA has a switch fluorescence ratio of 1 ± 0.034. Sequence TTTTTTCGTT has a switch fluorescence ratio of 0.988 ± 0.022. In the case of GAGACGGGTG, the switch fluorescence ratio is reported as 1.01 ± 0.031. AAGGGGTGGG was tested, and the switch fluorescence ratio was 1.02 ± 0.032. CGTGGTGTTG showed a switch fluorescence ratio of 0.991 ± 0.015. Work on GTGTCATAGT yielded a switch fluorescence ratio of 0.9923 ± 0.0016. For TTCCGGGCCG, the switch fluorescence ratio was 1.03 ± 0.037. Work on GTGGTTGTCG yielded a switch fluorescence ratio of 0.983 ± 0.015. For TTTAGACCCT, the switch fluorescence ratio was 1.013 ± 0.0046. Work on GCACTCAGGA yielded a switch fluorescence ratio of 1.03 ± 0.04. With AGCGGTATGC the switch fluorescence ratio was 0.9804 ± 0.0073. Work on TTAGAGGACG yielded a switch fluorescence ratio of 1.02 ± 0.025. TTTTGCCCCC gave a switch fluorescence ratio of 1.12 ± 0.14. In the case of AAAGTCATGG, the switch fluorescence ratio is reported as 0.948 ± 0.013. CCAATTATGT was tested, and the switch fluorescence ratio was 1.01 ± 0.025. TGTGAGTGTG was tested, and the switch fluorescence ratio was 0.983 ± 0.015. Work on TGTGTCTTTT yielded a switch fluorescence ratio of 1.01 ± 0.047. CCTTTGTTAT showed a switch fluorescence ratio of 1.052 ± 0.0082. Work on TGACCCGGGT yielded a switch fluorescence ratio of 1.018 ± 0.0072. TCGAAGTCAG showed a switch fluorescence ratio of 1.06 ± 0.044. GGATATAGGG showed a switch fluorescence ratio of 1 ± 0.034. With GCGGGGTACT the switch fluorescence ratio was 1.11 ± 0.055. With GCTACACAGG the switch fluorescence ratio was 1.45 ± 0.016. ACAGGTTGGA gave a switch fluorescence ratio of 1.03 ± 0.023. TTTTTTTGGT gave a switch fluorescence ratio of 0.996 ± 0.028. For TTCGGGAACA, the switch fluorescence ratio was 1.02 ± 0.038. For ACGTTGAAGT, the switch fluorescence ratio was 1.01 ± 0.019. For ATCGCTTGAG, the switch fluorescence ratio was 0.9725 ± 0.0034. Sequence TTAAAAATGT has a switch fluorescence ratio of 0.958 ± 0.069. In the case of TTTAGTCTCA, the switch fluorescence ratio is reported as 1.017 ± 0.0089. With AATGCCAAGG the switch fluorescence ratio was 1 ± 0.03. In the case of CTGGGATGTG, the switch fluorescence ratio is reported as 0.98 ± 0.023. ATTTCAAATT gave a switch fluorescence ratio of 1.02 ± 0.028. GTTATTGGGT gave a switch fluorescence ratio of 0.988 ± 0.046. TGCATGTAGG showed a switch fluorescence ratio of 1.01 ± 0.034. Work on GAAGTATGTG yielded a switch fluorescence ratio of 1.006 ± 0.0092. For GGGTCCCGGG, the switch fluorescence ratio was 1.0586 ± 0.00036. In the case of ATCGCCTTGT, the switch fluorescence ratio is reported as 0.9943 ± 0.0024. TATCTTTGCG was tested, and the switch fluorescence ratio was 0.965 ± 0.01. In the case of TTTGCGACGT, the switch fluorescence ratio is reported as 1.02 ± 0.025. In the case of GGGGTTTGCG, the switch fluorescence ratio is reported as 0.973 ± 0.011. TTTCGGCGGT showed a switch fluorescence ratio of 1.02 ± 0.021. In the case of TGTTTTTTGC, the switch fluorescence ratio is reported as 0.995 ± 0.056. TGAAGGATTT gave a switch fluorescence ratio of 1.01 ± 0.034. AGATAGAGTG showed a switch fluorescence ratio of 0.996 ± 0.02. With GATATTTTTC the switch fluorescence ratio was 1.035 ± 0.0096. TAAATGCCGG gave a switch fluorescence ratio of 1.14 ± 0.26. CGAATTTTCG was tested, and the switch fluorescence ratio was 0.976 ± 0.012. Sequence TTTGGTAGAA has a switch fluorescence ratio of 0.996 ± 0.025. For CGGATGTATA, the switch fluorescence ratio was 0.988 ± 0.014. Sequence AGCTGGGAAG has a switch fluorescence ratio of 0.982 ± 0.021. TTATTGGTGT was tested, and the switch fluorescence ratio was 1.01 ± 0.024. AGGATTTTAG showed a switch fluorescence ratio of 1.002 ± 0.0049. ACCGTCAGTG gave a switch fluorescence ratio of 1 ± 0.015. With TCAAGATTGG the switch fluorescence ratio was 0.986 ± 0.023. In the case of CGGTTTAGGG, the switch fluorescence ratio is reported as 0.986 ± 0.026. With GGGCTAGGTT the switch fluorescence ratio was 0.986 ± 0.031. In the case of ACGGTTTAAT, the switch fluorescence ratio is reported as 1.04 ± 0.029. In the case of GTTTTCAAAG, the switch fluorescence ratio is reported as 0.973 ± 0.037. In the case of CAGTTAGTGT, the switch fluorescence ratio is reported as 1.001 ± 0.00021. ACGGGGATTG was tested, and the switch fluorescence ratio was 1.02 ± 0.042. For CGAACTTTTG, the switch fluorescence ratio was 0.984 ± 0.018. Sequence AATGCGCCAG has a switch fluorescence ratio of 1.03 ± 0.025. GCTCTAAGGG showed a switch fluorescence ratio of 1.01 ± 0.028. CGACGGAAGG was tested, and the switch fluorescence ratio was 1.25 ± 0.06. Work on GAAGTATGGG yielded a switch fluorescence ratio of 0.956 ± 0.024. CGTTTTTAAA was tested, and the switch fluorescence ratio was 1.02 ± 0.04. ACCGGATGG gave a switch fluorescence ratio of 1.03 ± 0.027. Work on TATGTCAAG yielded a switch fluorescence ratio of 1.02 ± 0.016. For TCCCGGCCTG, the switch fluorescence ratio was 1.012 ± 0.0041. In the case of GACGGGGACT, the switch fluorescence ratio is reported as 1.1 ± 0.025. In the case of GGGGTTGGCA, the switch fluorescence ratio is reported as 1.03 ± 0.014. Work on ACATTTAGGC yielded a switch fluorescence ratio of 1.048 ± 0.0088. ATAGGCCAG showed a switch fluorescence ratio of 0.9898 ± 0.0067. TTCGAAGGGC gave a switch fluorescence ratio of 1.14 ± 0.16. Sequence GGGTGTTTGC has a switch fluorescence ratio of 1.02 ± 0.035. GAGTTGGGGG showed a switch fluorescence ratio of 1.02 ± 0.012. For GTTTTTTCAT, the switch fluorescence ratio was 1.02 ± 0.023. Work on TATTCTAGAG yielded a switch fluorescence ratio of 0.989 ± 0.044. For ATGAGCATTC, the switch fluorescence ratio was 1.18 ± 0.026. CTCAGGGCGT was tested, and the switch fluorescence ratio was 0.97546 ± 0.00044. Sequence CGGGACGCGT has a switch fluorescence ratio of 1.021 ± 0.0039. Work on ATGAGTGACC yielded a switch fluorescence ratio of 1.02 ± 0.016. ATAAGGTGAG was tested, and the switch fluorescence ratio was 0.998 ± 0.035. Work on GCAGGGATCA yielded a switch fluorescence ratio of 0.9813 ± 0.0013. TGAAATTTG showed a switch fluorescence ratio of 1.01 ± 0.03.
